Measurements reported in the supplement of paper PMC9876800.

What follows are substances tested on peptide library, one residue held at a place counted from the S/T acceptor (assay: relative phosphorylation of the sub-library (ratio to the mean residue at this position); human; higher = residue favoured). Settings: D fixed; at +2.
Method in brief: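 Relative sub-library phosphorylation is the ratio of each sub-library's signal to the mean residue at that position. The signal came from phosphorimaging of spots on streptavidin membranes, quantified by densitometry, after purified recombinant kinases reacted with biotinylated degenerate peptide sub-libraries in 384-well plates. Reactions held 50 μM peptide and 50 μM ATP spiked with γ-32P-ATP for 90 min under kinase-specific conditions.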

Sequence of CHEK2, construct: Full length (O96017 whole entry, looked up): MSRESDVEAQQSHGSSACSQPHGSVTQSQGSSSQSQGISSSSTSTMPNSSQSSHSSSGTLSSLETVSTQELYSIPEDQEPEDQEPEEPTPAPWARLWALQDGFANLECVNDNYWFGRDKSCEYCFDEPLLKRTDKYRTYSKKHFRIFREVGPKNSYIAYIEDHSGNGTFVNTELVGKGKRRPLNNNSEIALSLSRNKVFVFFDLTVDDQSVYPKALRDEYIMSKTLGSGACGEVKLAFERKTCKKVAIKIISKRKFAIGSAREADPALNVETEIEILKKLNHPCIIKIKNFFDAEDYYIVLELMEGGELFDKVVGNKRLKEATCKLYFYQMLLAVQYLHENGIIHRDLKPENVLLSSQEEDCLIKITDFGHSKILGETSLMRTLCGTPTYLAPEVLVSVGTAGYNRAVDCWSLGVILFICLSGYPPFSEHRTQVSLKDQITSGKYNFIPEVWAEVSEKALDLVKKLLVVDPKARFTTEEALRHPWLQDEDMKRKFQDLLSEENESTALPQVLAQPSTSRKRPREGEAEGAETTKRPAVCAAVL
Sequence of MAP3K10, construct: aa1-449 (Q02779 1-449, looked up): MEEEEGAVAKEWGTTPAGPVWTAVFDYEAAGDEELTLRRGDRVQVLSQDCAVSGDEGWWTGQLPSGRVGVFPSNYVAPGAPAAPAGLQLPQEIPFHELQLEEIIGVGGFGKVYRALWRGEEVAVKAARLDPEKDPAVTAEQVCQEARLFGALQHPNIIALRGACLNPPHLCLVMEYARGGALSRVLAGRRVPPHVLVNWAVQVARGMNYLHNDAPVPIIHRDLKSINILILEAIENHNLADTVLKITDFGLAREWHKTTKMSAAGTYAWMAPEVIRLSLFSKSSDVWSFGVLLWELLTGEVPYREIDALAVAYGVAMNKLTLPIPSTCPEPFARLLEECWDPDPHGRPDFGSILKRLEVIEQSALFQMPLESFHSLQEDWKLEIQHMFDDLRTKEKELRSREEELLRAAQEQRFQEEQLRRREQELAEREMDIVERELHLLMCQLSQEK
Sequence of TTBK1, construct: Full length (Q5TCY1 whole entry, looked up): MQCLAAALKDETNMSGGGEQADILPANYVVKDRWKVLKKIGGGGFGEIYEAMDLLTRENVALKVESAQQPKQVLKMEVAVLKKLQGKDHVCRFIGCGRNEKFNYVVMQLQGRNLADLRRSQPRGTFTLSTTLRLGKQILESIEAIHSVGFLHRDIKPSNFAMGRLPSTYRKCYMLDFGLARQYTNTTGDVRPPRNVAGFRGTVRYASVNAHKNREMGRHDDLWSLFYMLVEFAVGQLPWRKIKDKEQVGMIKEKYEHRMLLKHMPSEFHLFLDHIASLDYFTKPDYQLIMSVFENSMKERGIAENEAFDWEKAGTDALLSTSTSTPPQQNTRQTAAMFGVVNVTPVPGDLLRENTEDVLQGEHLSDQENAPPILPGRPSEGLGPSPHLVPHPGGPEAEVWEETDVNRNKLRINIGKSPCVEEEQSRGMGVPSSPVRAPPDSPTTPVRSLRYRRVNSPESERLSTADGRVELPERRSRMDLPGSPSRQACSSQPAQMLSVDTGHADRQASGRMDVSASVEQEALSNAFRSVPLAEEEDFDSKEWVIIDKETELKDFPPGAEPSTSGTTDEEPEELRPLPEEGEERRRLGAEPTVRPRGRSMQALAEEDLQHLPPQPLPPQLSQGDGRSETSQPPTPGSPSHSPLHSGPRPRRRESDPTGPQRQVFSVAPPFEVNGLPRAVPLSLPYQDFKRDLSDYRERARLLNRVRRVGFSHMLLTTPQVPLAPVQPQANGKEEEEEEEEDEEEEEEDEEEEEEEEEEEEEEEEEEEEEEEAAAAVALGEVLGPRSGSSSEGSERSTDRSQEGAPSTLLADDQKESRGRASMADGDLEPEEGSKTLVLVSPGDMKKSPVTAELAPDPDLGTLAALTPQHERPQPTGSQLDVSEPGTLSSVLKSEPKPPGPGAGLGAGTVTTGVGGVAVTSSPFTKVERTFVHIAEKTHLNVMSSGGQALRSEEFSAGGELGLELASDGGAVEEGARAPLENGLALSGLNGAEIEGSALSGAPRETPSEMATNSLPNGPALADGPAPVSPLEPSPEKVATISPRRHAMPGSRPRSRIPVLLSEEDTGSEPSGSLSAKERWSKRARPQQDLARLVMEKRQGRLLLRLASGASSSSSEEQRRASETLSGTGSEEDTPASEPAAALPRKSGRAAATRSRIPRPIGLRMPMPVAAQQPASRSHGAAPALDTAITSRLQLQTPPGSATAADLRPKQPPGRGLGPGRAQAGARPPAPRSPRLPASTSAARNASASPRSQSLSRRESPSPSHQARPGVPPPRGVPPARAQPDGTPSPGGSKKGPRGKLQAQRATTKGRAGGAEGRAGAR
Sequence of CAMK1, construct: Full length (Q14012 whole entry, looked up): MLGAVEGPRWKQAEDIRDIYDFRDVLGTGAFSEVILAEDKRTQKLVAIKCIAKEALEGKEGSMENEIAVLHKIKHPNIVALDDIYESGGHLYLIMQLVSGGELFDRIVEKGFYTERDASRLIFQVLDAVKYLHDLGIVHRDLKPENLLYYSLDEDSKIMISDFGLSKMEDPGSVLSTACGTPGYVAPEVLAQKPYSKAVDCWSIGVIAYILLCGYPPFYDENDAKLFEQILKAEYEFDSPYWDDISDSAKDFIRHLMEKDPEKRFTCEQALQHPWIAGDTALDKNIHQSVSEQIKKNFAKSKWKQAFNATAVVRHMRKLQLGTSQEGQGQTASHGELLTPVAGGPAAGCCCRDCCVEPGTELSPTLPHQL
Sequence of MOK, construct: aa1-343 (Q9UQ07 1-343, looked up): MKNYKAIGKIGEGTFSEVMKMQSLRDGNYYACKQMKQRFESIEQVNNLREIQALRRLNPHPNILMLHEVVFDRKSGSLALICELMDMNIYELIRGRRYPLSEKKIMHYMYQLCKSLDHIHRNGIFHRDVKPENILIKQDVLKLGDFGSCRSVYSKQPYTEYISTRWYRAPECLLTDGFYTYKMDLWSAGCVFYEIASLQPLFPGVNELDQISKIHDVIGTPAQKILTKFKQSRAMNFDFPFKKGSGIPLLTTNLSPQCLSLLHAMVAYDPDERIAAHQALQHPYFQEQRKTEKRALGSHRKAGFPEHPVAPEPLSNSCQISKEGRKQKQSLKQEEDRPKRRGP
Sequence of EIF2AK1, construct: Full length (Q9BQI3 whole entry, looked up): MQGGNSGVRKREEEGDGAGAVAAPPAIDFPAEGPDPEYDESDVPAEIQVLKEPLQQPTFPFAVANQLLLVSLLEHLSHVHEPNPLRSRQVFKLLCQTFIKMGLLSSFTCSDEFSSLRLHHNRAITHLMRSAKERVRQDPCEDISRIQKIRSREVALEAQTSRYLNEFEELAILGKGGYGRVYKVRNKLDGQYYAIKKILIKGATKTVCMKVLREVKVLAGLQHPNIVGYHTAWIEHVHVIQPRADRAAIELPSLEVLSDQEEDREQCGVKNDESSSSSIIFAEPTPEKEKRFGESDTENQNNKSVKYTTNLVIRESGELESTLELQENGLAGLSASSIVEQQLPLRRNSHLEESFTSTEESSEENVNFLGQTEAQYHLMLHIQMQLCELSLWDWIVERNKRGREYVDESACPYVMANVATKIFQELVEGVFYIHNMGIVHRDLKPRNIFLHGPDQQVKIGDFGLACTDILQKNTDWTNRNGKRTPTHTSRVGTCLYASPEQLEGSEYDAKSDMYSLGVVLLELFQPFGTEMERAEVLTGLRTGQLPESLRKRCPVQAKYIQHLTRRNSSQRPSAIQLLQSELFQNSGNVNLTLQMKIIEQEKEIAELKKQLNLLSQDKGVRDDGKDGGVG
Sequence of MAP4K3, construct: aa1-380 (Q8IVH8 1-380, looked up): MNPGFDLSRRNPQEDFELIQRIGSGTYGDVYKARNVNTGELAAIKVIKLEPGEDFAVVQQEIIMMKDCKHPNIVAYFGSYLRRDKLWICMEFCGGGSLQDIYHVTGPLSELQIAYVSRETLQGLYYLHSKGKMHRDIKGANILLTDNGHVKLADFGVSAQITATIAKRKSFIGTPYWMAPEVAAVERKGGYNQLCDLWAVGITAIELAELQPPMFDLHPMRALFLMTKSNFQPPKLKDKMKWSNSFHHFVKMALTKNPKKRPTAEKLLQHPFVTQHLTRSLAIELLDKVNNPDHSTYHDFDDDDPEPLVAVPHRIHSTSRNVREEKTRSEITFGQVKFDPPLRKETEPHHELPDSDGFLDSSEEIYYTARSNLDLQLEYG

| Substance | relative phosphorylation |
| --- | --- |
| MAP3K10, construct: aa1-449 (from UniProt Q02779) | 0.398 |
| EIF2AK1, construct: Full length (from UniProt Q9BQI3) | 0.489 |
| PKN3, construct: Full length (from UniProt Q6P5Z2) | 0.652 |

Same assay, conditions: D fixed; at +3

| Substance | relative phosphorylation |
| --- | --- |
| MOK, construct: aa1-343 (from UniProt Q9UQ07) | 0.511 |
| TTBK1, construct: Full length (from UniProt Q5TCY1) | 0.85 |
| CHEK2, construct: Full length (from UniProt O96017) | 0.484 |
| MAP4K3, construct: aa1-380 (from UniProt Q8IVH8) | 0.375 |
| CAMK1, construct: Full length (from UniProt Q14012) | 1.01 |
| MAP3K10, construct: aa1-449 (from UniProt Q02779) | 0.506 |
| EIF2AK1, construct: Full length (from UniProt Q9BQI3) | 0.403 |
| PKN3, construct: Full length (from UniProt Q6P5Z2) | 0.765 |

Same assay, conditions: D fixed; at +4

| Substance | relative phosphorylation |
| --- | --- |
| MOK, construct: aa1-343 (from UniProt Q9UQ07) | 0.519 |
| TTBK1, construct: Full length (from UniProt Q5TCY1) | 0.83 |
| CHEK2, construct: Full length (from UniProt O96017) | 0.53 |
| MAP4K3, construct: aa1-380 (from UniProt Q8IVH8) | 0.655 |
| CAMK1, construct: Full length (from UniProt Q14012) | 0.758 |
| MAP3K10, construct: aa1-449 (from UniProt Q02779) | 0.72 |
| EIF2AK1, construct: Full length (from UniProt Q9BQI3) | 0.602 |
| PKN3, construct: Full length (from UniProt Q6P5Z2) | 0.967 |

Same assay, conditions: D fixed; at -1

| Substance | relative phosphorylation |
| --- | --- |
| MOK, construct: aa1-343 (from UniProt Q9UQ07) | 0.269 |
| TTBK1, construct: Full length (from UniProt Q5TCY1) | 0.452 |
| CHEK2, construct: Full length (from UniProt O96017) | 0.702 |
| MAP4K3, construct: aa1-380 (from UniProt Q8IVH8) | 0.611 |
| CAMK1, construct: Full length (from UniProt Q14012) | 0.925 |
| MAP3K10, construct: aa1-449 (from UniProt Q02779) | 0.775 |
| EIF2AK1, construct: Full length (from UniProt Q9BQI3) | 1.26 |
| PKN3, construct: Full length (from UniProt Q6P5Z2) | 1.01 |

Same assay, conditions: D fixed; at -2

| Substance | relative phosphorylation |
| --- | --- |
| MOK, construct: aa1-343 (from UniProt Q9UQ07) | 0.168 |
| TTBK1, construct: Full length (from UniProt Q5TCY1) | 1.46 |
| CHEK2, construct: Full length (from UniProt O96017) | 0.276 |
| MAP4K3, construct: aa1-380 (from UniProt Q8IVH8) | 0.522 |
| CAMK1, construct: Full length (from UniProt Q14012) | 0.25 |
| MAP3K10, construct: aa1-449 (from UniProt Q02779) | 0.594 |
| EIF2AK1, construct: Full length (from UniProt Q9BQI3) | 3.35 |
| PKN3, construct: Full length (from UniProt Q6P5Z2) | 0.684 |

Same assay, conditions: D fixed; at -3

| Substance | relative phosphorylation |
| --- | --- |
| MOK, construct: aa1-343 (from UniProt Q9UQ07) | 0.231 |
| TTBK1, construct: Full length (from UniProt Q5TCY1) | 1.23 |
| CHEK2, construct: Full length (from UniProt O96017) | 0.1 |
| MAP4K3, construct: aa1-380 (from UniProt Q8IVH8) | 0.553 |
| CAMK1, construct: Full length (from UniProt Q14012) | 0.157 |
| MAP3K10, construct: aa1-449 (from UniProt Q02779) | 0.888 |
| EIF2AK1, construct: Full length (from UniProt Q9BQI3) | 1.11 |
| PKN3, construct: Full length (from UniProt Q6P5Z2) | 0.44 |

Same assay, conditions: D fixed; at -4

| Substance | relative phosphorylation |
| --- | --- |
| MOK, construct: aa1-343 (from UniProt Q9UQ07) | 0.441 |
| TTBK1, construct: Full length (from UniProt Q5TCY1) | 1.03 |
| CHEK2, construct: Full length (from UniProt O96017) | 0.367 |
| MAP4K3, construct: aa1-380 (from UniProt Q8IVH8) | 0.851 |
| CAMK1, construct: Full length (from UniProt Q14012) | 0.285 |
| MAP3K10, construct: aa1-449 (from UniProt Q02779) | 1.11 |
| EIF2AK1, construct: Full length (from UniProt Q9BQI3) | 0.87 |
| PKN3, construct: Full length (from UniProt Q6P5Z2) | 0.823 |

Same assay, conditions: D fixed; at -5

| Substance | relative phosphorylation |
| --- | --- |
| MOK, construct: aa1-343 (from UniProt Q9UQ07) | 0.526 |
| TTBK1, construct: Full length (from UniProt Q5TCY1) | 0.844 |
| CHEK2, construct: Full length (from UniProt O96017) | 0.236 |
| MAP4K3, construct: aa1-380 (from UniProt Q8IVH8) | 0.835 |
| CAMK1, construct: Full length (from UniProt Q14012) | 0.205 |
| MAP3K10, construct: aa1-449 (from UniProt Q02779) | 1.11 |
| EIF2AK1, construct: Full length (from UniProt Q9BQI3) | 0.672 |
| PKN3, construct: Full length (from UniProt Q6P5Z2) | 0.801 |

Same assay, conditions: E fixed; at +1

| Substance | relative phosphorylation |
| --- | --- |
| MOK, construct: aa1-343 (from UniProt Q9UQ07) | 0.15 |
| TTBK1, construct: Full length (from UniProt Q5TCY1) | 0.626 |
| CHEK2, construct: Full length (from UniProt O96017) | 0.402 |
| MAP4K3, construct: aa1-380 (from UniProt Q8IVH8) | 0.151 |
| CAMK1, construct: Full length (from UniProt Q14012) | 0.497 |
| MAP3K10, construct: aa1-449 (from UniProt Q02779) | 0.404 |
| EIF2AK1, construct: Full length (from UniProt Q9BQI3) | 0.358 |
| PKN3, construct: Full length (from UniProt Q6P5Z2) | 0.554 |

Same assay, conditions: E fixed; at +2

| Substance | relative phosphorylation |
| --- | --- |
| MOK, construct: aa1-343 (from UniProt Q9UQ07) | 0.672 |
| TTBK1, construct: Full length (from UniProt Q5TCY1) | 0.168 |
| CHEK2, construct: Full length (from UniProt O96017) | 0.382 |
| MAP4K3, construct: aa1-380 (from UniProt Q8IVH8) | 0.643 |
| CAMK1, construct: Full length (from UniProt Q14012) | 0.508 |
| MAP3K10, construct: aa1-449 (from UniProt Q02779) | 0.392 |
| EIF2AK1, construct: Full length (from UniProt Q9BQI3) | 0.382 |
| PKN3, construct: Full length (from UniProt Q6P5Z2) | 0.784 |

Same assay, conditions: E fixed; at +3

| Substance | relative phosphorylation |
| --- | --- |
| MOK, construct: aa1-343 (from UniProt Q9UQ07) | 0.507 |
| TTBK1, construct: Full length (from UniProt Q5TCY1) | 1.35 |
| CHEK2, construct: Full length (from UniProt O96017) | 0.407 |
| MAP4K3, construct: aa1-380 (from UniProt Q8IVH8) | 0.296 |
| CAMK1, construct: Full length (from UniProt Q14012) | 0.699 |
| MAP3K10, construct: aa1-449 (from UniProt Q02779) | 0.439 |
| EIF2AK1, construct: Full length (from UniProt Q9BQI3) | 0.388 |
| PKN3, construct: Full length (from UniProt Q6P5Z2) | 0.848 |

Same assay, conditions: E fixed; at +4

| Substance | relative phosphorylation |
| --- | --- |
| MOK, construct: aa1-343 (from UniProt Q9UQ07) | 0.506 |
| TTBK1, construct: Full length (from UniProt Q5TCY1) | 0.735 |
| CHEK2, construct: Full length (from UniProt O96017) | 0.541 |
